Test results taken from a protein production outcome set (Wang et al. 2014).

Assay: label from the status in PepcDB records
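Note: failed if final PepcDB status was selected cloned or expressed and not failed if soluble or beyond.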

Sequence	protein production
MNYPKAILLSLALLAMHSLNAEVVTYPAGVGVKTLNDFSVEVRQGSGPWLPVDVYPVKVDRVDEKGHNVEVASIAYFDFDGMVDVRVISNKERVNSVRVRPLSYKITPDCVGDTVTFSLSRPRNLSVEVNGDIFHNLHLFANPIDKFRPSDKEIQRALKKKKGSNLIYFGPGVHNLPNDTLFVPSGTTVYIDGGARVYGNIFTEGAHDVNIFGRGEVHPDGRGAGVWVRRSKNVRIDGIVVSQLPIGQCDSVELTNVKSISYYGWGDGMDVFSSSNVILDGVFCRNSDDCAAVYASTQGFKGGSNNVLVKNATLWADVAHPINIGGHGDPNGMDTVQNVTFRNIDILDQAEKQIDYQGCLAINPGDNTLVRNITFENIRIEDFRNGQLVNFRISFNPKYCVSTGRGIQNVLVKDVTYNGSGENLSIIAGYDENHKISGIRFVNLVVNGRKITDDMPGKPKWYKTGDMAGIFVGEHVENLSFE	failed
MQSIRSILVVIDPTPGESLALKRAKLIAGVTQAHLHLLVCDRKHEHSALLSVLKSSLTGEGYSVTTEQAWNESLHETIIDVQQAEGCGLVIKQHLPDAPLKKALLTPADWKLLRYCPTPVLLVKTATPWVGGVVMAAIDVGNMDGEHRALHASIVDHGFDIASLAKAQLHVISAHPSPMLSAADPVFQLKETIEARYREQCKAFQAEFDIDDAHLHIEEGPADVLIPHLAHKLGAVLTIIGTVARTGISGALIGNTAEVVLDSLDSDVLVLKPADIMDHLEELAAKA	not failed
MAPDQQVPATALGKSSRISLDGRRSERSVILADGSMHSLTLLHPGVYTLSSEVAETIRVLSGMAYYHAEGANDVQELHAGDSMVIPANQSYRLEVMEPLDYLLSS	not failed
MNKWVITSLFAISTLSASVASALEVRYMATPQQSTWQMATNTPLECRLVHPIPNYGDAEFSSRAGKKINLDFELKMRRPMGDTRNVSLVSMPPVWRPGEGADRITNLQFFKQFDGYIGGQTAWSLLSELEKGRYPTFSYQDWQSRDQRIEVALSSVLFQQPYNEFSDCISKLLPYSFEDISFTILHYDQGTSVELNKASQKRLAQIAEYVRYNQDIDLVLVSTYTDSTDTNNNSQNLSEQRAEVLREYFKSIGLPEDRIQVQGYGKRRPIADNASPIGKDKNRRVVISLGRTQV	failed
MKVNKRVLSIGLAISLIMAGAPNINALSSIEKIQGKDRYETAAKIAQKQTYENVVLVNTDNTLADGLSASGLAGTVKAPILLSQRNSIPSDTEKMLKDVKKVYIIGTEDSIGKSVENELKQKGIEVKRIGGNDRIETSYLIAKEIASIKPIDKVFITNGYTGEADAMSASSVASRDGAPIILTNGKNVPFEKKEGVQCYALGSEEIISNDLVKKTNSVRLAGEDRFETNKKVIKHFYSSAKEFYLSKGYQLVDAVAGSSIAKNAPIVLVDGNSDKSVLRSADKITALGGIDEKTLEQCLSASSLDASAPTITVGNLNIYQGDKFDISKLNIVAKDSNGNDLTPELIGNINTDKVGKYKVTIKATDIGGKTTSISVEVNVLEYKTNDMNSSEFKRMVSSEMYSLVNSYRKEKGKEPLQVSENLQGMANYWSKYMADKGEFAHVINGKNAAEVFSGGIRSEENIAFVPLTTKSTYTTKDAREVANVIFTVWKKSDKYNENMLSSKFAYTGFGLYILPDGQVYATQEFLNK	failed
MPKLTKRILDAAGARPTPYFLWCSDLKGFGVRIFPSGRRVYYADYRTAAGMRRRMSLGEHGKLTVDEARRLAITTLGDVIRGDDPIEERVTRRKSLTIAELCRRYLEAAGAGLVLGRGRKPKKATTLVSDRGRIEHHIVPLLGSRLVRDLTTAEVQRFVRDVQAGRTAKRYKTKARGMVLVEGGAGAAARTAGLLGGIMSYAIGEGVIALNPVRGVKRPADRKKDRRLSPEEYRALGRVLAEAEGDRESWQAVSSIQLLCLTGCRMREIANLRWTEVDFAGRCLRLDNTKEGRSIRPLGQAAVALLRQIEERRAGPYVLPATRGEGGFGGIPDAIERYSKRAGLPGIGAHTLRHSFASTAADLGCSDSTIGAMLGHAGHGVTSRYIHHLDAVLIMAADRVTTAMAGWLKDRYAERLEPAYPASRTVPLS	failed
MGHHHHHHSHMTCGAWEMKERLGTGGFGNVIRWHNQETGEQIAIKQCRQELSPRNRERWCLEIQIMRRLTHPNVVAARDVPEGMQNLAPNDLPLLAMEYCQGGDLRKYLNQFENCCGLREGAILTLLSDIASALRYLHENRIIHRD	failed
MVTLQAFQPLIDTVQGSLLLASPDDGHIYCANQLACILLASPHSELLKSSVYDFLPDKNEAYTICRELAGNNMIYNRGMQLSTSTGRIFDVQLSARRISLDQVPLLVVSFSDRTETKVLGQLLDFERQLVERSLSIVKTLKEEGRQNDDEDKLTGVVGMHRLMSSAHSETSRAKRYGGSLSGLALELVNVPEMVPREDDGSAYGHLIRLAGSLCLQSSRDSDLVARRSANTFVILLPHTAIGGANEMGRRLIKSLRQLTFLYQGTEHQAAACVGISALRPEESSPTPMLERLEEALKKARDGGANYIIQLP	failed
MTPFPAYVPPDFTRPDLAAAPPVRVAEAPGSGVLPAGFHATSNYPEYVHLGGGRWLLASGSRMDAVLVLDGDMLRVVEPRLVRRGDRVVVGRTENGEEGIYVHTTGFDAPAGAGGDKFTFRSRGTRESPFSRSYEELYDILRHDRDHGHIVWVLGPAVAFDRDSRAAMAGLIGGGYCHALLAGNALATHDLEAALFHTGLGQDIYTQALVAGGHYHHLDVINEVLRHGSLERAIAELGIRDGIIRACLEHRVPVVLAGSIRDDGPLPDVITDSRQAQDAMRAHARRATTVIALATQLHAIAVGNMTPSYRVLDDGTVRPVYFYIVDMSEFGADKLANRGSGQARAILTNVQDFMVNLWNNLKG	failed
YSGSQAPGGIQEIVAMSPELDTYSITKRVKEVLTDNNLGQRLFGESILGLTQGSVSDLLSRPKPWHKLSLKGREPFVRMQLWLNDPHNVEKLRDMKKL	not failed
CVACSKPISGLTGAKFICFQDSQWHSECFNCGKCSVSLVGKGFLTQNKEIFCQKCGSGMDTDI	not failed
KGLDKWGIYVPESAAQSVKDAVFEAGAGAIGDYSQCSFEWQGTGQFLPHHNAQPVVGHPGQLERTEELRVEFVAPARLRTTLIDAIRAAHPYEEPAFDVVSMQSTQDLETAEGLGRVGTLPEPMRFGDFVQQVADALPETSWGIRAAGDPEQMVHTVAVSSGSGDSFLDAVAALGVDVYVTSDLRHHPADESRRAQGPLLIDTAHWASEFPWTYQVQELLAQEFAQLDVEVATLRTDPWNISAHPQLR	not failed
MIPQIPLPMLSEGKDCKIREVLAGKALKRRLTEMGFTPSSSIRLIGCERGNLLVNVNGARYALGKGMAMKIMVEPD	failed
MYALISLEEDPSLLRYGYLSQDNVGDVRREVSKLCGELRPHALALVTSFGIPDSFLSPIAFNWVEANTWSSV	failed
MLCARTDNHQGTGNVVTSAHMTRANDDDAGAAGIGAVAHMTTVDDNYTGHVERGKAARRFLPGATILKASVGPMDNNAYLVTCSATGETLLIDAANDAEVLIDLVRRYAPKLALIVTSHQHFDHWQALQAVAAATGAPTAAHPIDADPLPVKPDRLLTHGDSVRIGELTFDVIHLRGHTPGSIALALGGPVTGGVTQLFTGDCLFPGGVGKTWQPADFTQLLDDVTTRVFDVYADSTVIYPGHGDDTELGAERPSLSEWRARGW	failed
MSVSPSPFNGAEHPIKGIALICLAVLLFASHDTLSKYLSAFYPIVMVVWARYVVHTLLMLVVFVPRSGFSAVVRTKRPGLQLLRALCLIGTSLLFTTGLRYIPLAEATAVNFLAPLLVTALSVPFLGERVSRAQWLAVLAGFVGVLIVVRPGGALFTPAILLPLGSALCFGFYQLLTRKLSGVDSPTTSNFLTGILNSLIMSALLPFFWSTPTLVHGLFMIGLGTCGMLGHMLLTQAFRHAAPAMLAPFSYGQILFAGLFGYLIFDHTPDQYALVGIAVICLSGLAVAWAQRKR	failed
MAIGMSELKKGLKIELGGVPYRIVEYQHVKPGKGAAFVRAKIKSFLDGKVIEKTFHAGDKCEEPNLVEKTMQYLYHDGDTYQFMDIESYEQIALNDSQVGEASKWMLDGMQVQVLLHNDKAISVDVPQVVALKIVETAPNFKGDTSSASKKPATLETGAVVQVPFHVLEGEIIKVNTETEEYLEKVK	failed
TPEHRAVAREVAAETFVLLKNENHLLPLEEKGKIALIGPMADARNNMCGMWSMTCTPSRHGTLLEGIRSAVGDKAEILYAKGSNVYYDAEMEKGAVGIRPLERGNDQQLLAEALRTAARADVIVAAVGECAEMSGESPSRTNLEIPDAQQDLLKALVKTGKPVVLLLFTGRPLILNWESEHIPSILNVWFGGSETGDAVADVLFGKAVPCGKLTTTFPRSVGQLPLFYNHLNTGRPDPDNRVFNRYASNYLDESNEPLYPFGYGLSYTDF	not failed
MTRTFDPIREMDRLLSDVTRTPATVAVPMDLYREGDDYTVAVDLPGVDPASIDIDVDDRTLTIRAERAAKVAKEAQWLSRERAMGTFARQLTLGHGLATDRITAEYTDGVLTLTIPVAETAKPRKVEVRHGSTTIDAMTDQAQVGSGEHQEQ	failed
MSSSIEIFPDSDILVAAAGKRLVGAIGAAVAARGQALIVLTGGGNGIALLRYLSAQAQQIEWSKVHLFWGDERYVPEDDDERNLKQARRALLNHVDIPSNQVHPMAASDGDFGGDLDAAALAYEQVLAASAAPGDPAPNFDVHLLGMGPEGHINSLFPHSPAVLESTRMVVAVDDSPKPPPRRITLTLPAIQRSREVWLLVSGPGKADAVAAAIGGADPVSVPAAGAVGRQNTLWLLDRDAAAKLPS	not failed
MNHRLAGIISPLGHITTDPIRSSSVNPSSPVYYKTIVNHFKSQTGNHVSPGLTNQEISAVESSHGFSFPLDLRSILQTGLPVGTNFPNWRTGSNRNNLLLPLLNLSQHVVRNGFWVDSWGIRPGNDAEALSLVKKLIEIAPVLVPVYGDFYVPSTTPNLAGNPVFQIDGDGVRELSCDVVGFLKGIGRSETPTEDRRRRRRPRRVEFWSDVAEGWRFVVARDYTRDWWSALGFEGLTACLDDAFWKLREAGWTEDDVRDMMMMDSVDQNTCIQQQTQTQSRDVVYAFGDEGMNERDRDTCTEDEDHQKGEVTTLRHLLLYDRLMS	failed
MQMMEQFYPKVSIVIPVYNGSDYMREAIDSALGQTYGNIEVIVVNDGSSDGGLTHEIALSYGGNIRYFAKENGGVASALNFAIRMMDGEYFSWLSHDDIYYPNKIETQIGYLAEHDRNAILYSDFELIDCLSKVIKPVNAGEIPPEQFLYNLITIGHLNGCTLLVPKRCFEETGFFDESLRSTQDYALWFTFAQKYRFEQIRKVLVKYRTHSNQGSYVIPTHSQEVNDLHIWFLEEASERGLLPIPDEGASRFFLEVAGIYKKRGIYRAADYSCSMALRHMRDEGGLALLRELPRVAYLKYYFRKKQFKSYLRELRRSTVRRSLLEHHHHHH	not failed
MKRKYFPFSAILGQEDLKKALLLNAVNPRIGGVLVRGEKGTAKSTAVRALGALLAAARNGSGGEGEVVVTLPLNATEEMVAGGIDFQQTMKEGRRVFQPGLLAKAHKGILYVDEVNLLDDHLVDIVLDAASSGENRVEREGITLSHPSLFVLAGTMNPEEGELRPQLLDRFGLCVEVRGEADPALRVDLMLRREAFDREPEEFSERYRAEEERLGRTIADAQSLLPSVRIPSHLRGFISELCRNSNVAGHRADLVIEQAARANAALRGSREVSVEDVTKVAGFALVHRRRDPVPPPEQKPQEPERQEEQSRDEQSRQEKPEERGDEPQQPQEGDDRRDGNDDSGNEERSQPENRDAAEQQERPDNEGQDELFSIGQSFRVRSIATPKDRKMRRGSGKRSRSRVSQKQGRYTKSTMPRGNNDIALDATLRAAAPFQRHRENPNGMAVVLQNEDIREKIREKRLGNLLIFVVDASGSMGARGRMAASKGAVMSLLLDAYQKRDKLAMVSFRKNEAFVNLPVTSSIELAARMLKEMPVGGRTPFSAGLLKGYEIAQNYLRKEPGGRPLIILVTDGKANRAIGQGKPLDEVFTISEKISREERIRFLVVDTEEPGLVTFGLAKKIAGLLDAWYYRIDDLRADTLVSIVKTMMP	failed
